{"source": "paper PMC2180222", "about": "(The Journal of Cell Biology, 2000)", "proteins": {"B1": {"name": "HIV-1 Rev (natural protein, UniProt P04616 1-116, looked up)", "chain": "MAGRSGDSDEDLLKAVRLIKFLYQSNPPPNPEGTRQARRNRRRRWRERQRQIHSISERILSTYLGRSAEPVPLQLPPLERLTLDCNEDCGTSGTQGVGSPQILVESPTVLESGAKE"}}, "molecular_target": "the molecule itself", "assay": "negative-stain electron microscopy"}
{"protein": "B1", "values": [{"measurement": "binding result", "value": "binds"}]}
